pKd: −log10 of the molar value.

For orientation: pKd means the Kd on a negative log10 scale, so that one unit is a factor of ten.

Experiment [1] addresses recombinant p38α MAP kinase (mitogen activated protein kinase) (UniProt Q16539).
Experiment [2] shares this target. Briefly: SPR; His-tagged p38α immobilised on an NTA sensor chip via Ni2+/NTA chelation, 25°C, BIAcore-2000; C-25 injected at 4.6 × 10^−6, 9.2 × 10^−6 and 13.8 × 10^−6 M; BIAevaluation 3.0. Background: In SPR one partner is held on a chip, and binding of the other changes the refractive index at the surface.

Chain of UniProt Q16539 (Q16539 whole entry): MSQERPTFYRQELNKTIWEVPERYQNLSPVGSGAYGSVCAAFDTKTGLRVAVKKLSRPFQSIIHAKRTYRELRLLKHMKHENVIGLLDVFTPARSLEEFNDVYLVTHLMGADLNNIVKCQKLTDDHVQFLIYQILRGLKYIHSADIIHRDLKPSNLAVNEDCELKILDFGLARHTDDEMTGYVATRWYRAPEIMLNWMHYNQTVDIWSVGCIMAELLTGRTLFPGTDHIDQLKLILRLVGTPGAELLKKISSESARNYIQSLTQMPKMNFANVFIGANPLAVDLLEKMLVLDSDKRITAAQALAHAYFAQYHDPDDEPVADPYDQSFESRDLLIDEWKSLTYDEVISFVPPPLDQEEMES

“C-25 protein from Cicer arietinum (natural protein)”: in experiment [1], the IC50 of inhibition of the phosphorylation of plate-coated ATF-2 by p38α (ELISA kinase assay, 100 μM ATP, C-25 at 1-25 μM, anti-phospho ATF-2 detection) amounted to 7.9 µM. Besides, the pKd in experiment [2] is 6.57.

(Values after publication PMC4053179.)
